In EP4796130A1, “ANTI-TISSUE FACTOR ANTIBODY-DRUG CONJUGATE COMPRISING CAMPTOTHECIN DERIVATIVE” (Celltrion, Inc., priority 2023, dated 2025):

System: HPAFII (human pancreatic cancer xenograft model)
Test: In vivo antitumor efficacy, HPAFII xenograft model
Parameters: species or system CB17 SCID mice
Conditions: 3 mg/kg i.v. QW × 3

B1: Isotype-MMAE: ADC in which anti-influenza A antibody (Navivumab, P23) is conjugated with MMAE (MC-vc-PAB-MMAE); DAR 4 (conjugate, chains of the INN, looked up)
VH: QVQLVQSGAEVKKPGASVKVSCKTSGYSFSTYGVSWVRQAPGQGPEWVGWISAYTGITDYAQKFQGRVTLTTDATTATAFLDLRSLRPDDTATYFCARDKVQGRVEVGSGGRHDYWGQGTLVIVSS
VL: EVVLTQSPGTLALPPGERATLSCRASHRVGSTYIAWYQQKSGQAPRRLIYGASNRATDIPDRFSGSGSGTDFTLTIRRLEPEDSAVYYCQQFSVSPWTFGQGTRVEIK
modifications: mc-vc-PAB-MMAE payload, DAR 4
Day 0, mean ± SEM
  Tumor Volume: 235 ± 17 mm^3
Day 4, mean ± SEM
  Tumor Volume: 357 ± 38 mm^3
Day 7, mean ± SEM
  Tumor Volume: 424 ± 46 mm^3
Day 11, mean ± SEM
  Tumor Volume: 603 ± 79 mm^3
Day 14, mean ± SEM
  Tumor Volume: 799 ± 98 mm^3
Day 28, mean ± SEM
  Tumor Volume: 2,142 ± 164 mm^3
Day 28 vs control group G1
  T/Cweight: 90.45%
  TGI: 10.01%
Mean ± SEM
  Tumor Weights on Day 28: 1.933 ± 0.177 g
Tumor volume on day 28 vs control group G1
  T/C: 90.99%
